# Experimental data taken from patent US20040049024A1, “Compositions and methods related to the minn1 tumor suppressor gene and protein” (priority 2003, published 2004).
# Peptide text beside a SMILES is read from it. * marks the point of attachment. Cbz = O=C(OCc1ccccc1)*; CH2F = FC*
# Columns and labels:
# [1] = test system: 293-T cells; experiment: Cell death after Minn1 or Fas transfection, with or without caspase inhibitor; assay type: cell-based, human; details: 30 μM, added immediately after transfection; DMSO carrier
# Description: Fas is a well-characterized inducer of apoptosis (Nagata, Annu. Rev. Genet., 33:29-55 [1999]).
# Apoptosis requires the activation of caspase proteases (Stennicke and Salvesen, Biochim. Biophys. Acta 1477:299-306 [2000]). In order to confirm that the cell death observed in the Minn1 and […] transfected cells was apoptotic cell death, the transfection experiments were repeated in the presence of the caspase inhibitor, z-VAD-fink (Calbiochem). The drug was added to the cells to a final concentration of 30 μM immediately after transfection and was maintained during subsequent medium changes. DMSO was used as the drug carrier, and was also included in transfections that contained no drug in order to normalize transfection conditions.
# [2] = target: T1, HA-H-Ras(G12V) fusion protein (UniProt P01112 1-186); experiment: co-transfection in 293-T cells, anti-HA immunoprecipitation, anti-FLAG Western blot
# T1 construct: Expressed in 293-T cells; precipitated with anti-HA beads; also called pCGNHA-H-Ras(G12V)
# Description: (§1) After 48 hours, the cells were lysed, immunoprecipitated using anti-HA antibody-conjugated sepharose beads (BAbCO), washed and analyzed by Western immunoblotting using an anti-FLAG monoclonal antibody (M2 antibody, SIGMA) and an alkaline phosphatase conjugated secondary antibody with an ECL detection kit (Amersham).
# (§2) After 48 hours, the cells were lysed in EDTA-free RIPA buffer (described in Clark et al., J. Biol. Chem., 272:20990-20993 [1997]), immunoprecipitated with anti-HA antibody-conjugated sepharose beads (BAbCO), washed and subjected to Western immunoblotting using an anti-FLAG monoclonal primary antibody (M2 antibody, Sigma) and an alkaline phosphatase conjugated secondary antibody with an ECL chemiluminescence kit (Amersham).
# [3] = target: T2, HA-H-Ras(WT) fusion protein (UniProt P01112 1-186); experiment: as above
# T2 construct: Expressed in 293-T cells; precipitated with anti-HA beads; also called wild-type HA-H-Ras
# Description: as §1, §2
# [4] = test system: H-Ras; experiment: In vivo Ras/Minn1 binding assay (co-transfection/co-precipitation in 293-T cells); assay type: cell-based, human; details: HA-H-Ras(WT) versus HA-H-Ras(G12V), 48 hours after co-transfection
# Source text: To confirm and complement the results observed in the in vitro binding assay, an in vivo binding assay was undertaken using recombinant FLAG-tagged Minn1 protein and hemagglutinin (HA)-tagged Ras proteins. These experiments used a standard co-transfection/co-precipitation protocol common in the art, using 293-T cells, a transformed human embryonal kidney cell line.
# Expression vectors encoding two different forms of HA-tagged Ras protein were used in this assay, namely, a wild-type HA-H-Ras fusion protein and an HA-H-Ras containing a gain-of-function (G12V) mutation. This mutation is known to be oncogenic, and results in elevated Ras signalling activity (Clark and Der, in GTPases in Biology [eds. Dickey and Birmbauer], Springer-Verlag London Ltd., pp. 259-287 [1993]). […] Thus, this mutant form of Ras is considered to be locked in an active conformation.
# as §1, with “The in vivo binding assay was conducted by co-transfecting mammalian expression vectors encoding HA-H-Ras(WT) or HA-H-Ras(G12V) with an expression vector encoding FLAG-Minn1 into 293-T cells. After” for “After”, “(Amersham). […]” for “(Amersham).”
# [5] = target: T3, H-Ras (Homo sapiens, UniProt P01112); experiment: In vitro Ras/Minn1 binding and co-precipitation assay
# T3 construct: made in house; XL1-Blue Escherichia coli for the MBP fusions
# Source text: The ability of Ras and Minn1 to interact in vitro was examined. These experiments used in vitro produced and purified maltose binding protein (MBP) fusion proteins containing the Minn1 Ras-Association (RA) domain or the Raf Ras-Binding-Domain (RBD), and purified Ras protein in a standard protein binding and co-precipitation assay.
# Ras protein was produced by inducing an H-Ras bacterial expression construct in bacteria followed by differential denaturation and dialysis, as known in the art (See e.g., Campbell-Burk and Carpenter, Methods Enzymol., 255:3-13 [1995]). […] Purity and concentrations of the recombinant proteins were assessed by denaturing polyacrylamide gel electrophoresis (SDS-PAGE) followed by Coomassie Blue staining and comparison to known standards.
# After this time, the binding reactions were centrifuged and washed. Following the washing steps, the binding reactions were loaded and resolved using PAGE, blotted to a polyvinylidene difluoride (PVDF) membrane, and analyzed by Western immunoblotting using an anti-H-Ras monoclonal primary antibody (Quality Biotech, #146). Detection was accomplished using an alkaline phosphatase conjugated secondary antibody and ECL chemiluminescence reagent (Amersham). […]
# The proteins resolved in the PAGE were analyzed by Western immunoblotting using an anti-H-Ras monoclonal antibody (Viro Med). […]
molecule,measurement,setting,value
COC(=O)C[C@H](NC(=O)[C@H](C)NC(=O)[C@@H](NC(=O)OCc1ccccc1)C(C)C)C(=O)CF [z-VAD-fmk] (Cbz-Val-Ala-Asp(OMe)-CH2F),Effect on Fas-induced cell death,[1],severely reduced
same,Effect on Minn1-induced cell death,[1],severely reduced
"FLAG-tagged Minn1 protein (other, not shown: small tags and cut ends, also called FLAG-Minn1) MGEAEAPSFEMTWSSTTSSGYCSQEDSDSELEQYFTARTSLARRPRRDQDEPVEWETPDLFQAEIEQKIKEYNAQINSNLFMSLNKDGSYTGFIKVQLKLVRPVSVPSSKKPPSLQDARRGPGRGTSVRRRTSFYLPKDAVKHLHVLSRTRAREVIEALLRKFLVVDDPRKFALFERAERHGQVYLRKLLDDEQPLRLRLLAGPSDKALSFVLKENDSGEVNWDAFSMPELHNFLRILQREEEEHLRQILQKYSYCRQKIQEALHACPLG",binding result,[2],binds
same,binding result,[3],binds
"FLAG-tagged Minn1: Minn1 protein with amino terminal FLAG epitope tag, expressed from pCDNAFLAG-Minn1 in 293-T cells (protein, left off: small tags and cut ends) MGEAEAPSFEMTWSSTTSSGYCSQEDSDSELEQYFTARTSLARRPRRDQDEPVEWETPDLFQAEIEQKIKEYNAQINSNLFMSLNKDGSYTGFIKVQLKLVRPVSVPSSKKPPSLQDARRGPGRGTSVRRRTSFYLPKDAVKHLHVLSRTRAREVIEALLRKFLVVDDPRKFALFERAERHGQVYLRKLLDDEQPLRLRLLAGPSDKALSFVLKENDSGEVNWDAFSMPELHNFLRILQREEEEHLRQILQKYSYCRQKIQEALHACPLG","Association with HA-tagged Ras proteins (anti-HA immunoprecipitation, anti-FLAG Western)",[4],preferentially associated with the activated HA-Ras(G12V) protein
"MBP-Minn1: maltose binding protein fusion protein containing the Minn1 Ras-Association (RA) domain, amino acid positions 59-270 (protein, left off: large carriers) DLFQAEIEQKIKEYNAQINSNLFMSLNKDGSYTGFIKVQLKLVRPVSVPSSKKPPSLQDARRGPGRGTSVRRRTSFYLPKDAVKHLHVLSRTRAREVIEALLRKFLVVDDPRKFALFERAERHGQVYLRKLLDDEQPLRLRLLAGPSDKALSFVLKENDSGEVNWDAFSMPELHNFLRILQREEEEHLRQILQKYSYCRQKIQEALHACPLG",GTP dependence of the interaction with Ras,[5]; GTP-loaded versus GDP-loaded H-Ras,GTP-dependent
same,Co-precipitation of Ras protein (physical interaction with Ras),"[5]; purified H-Ras preloaded with GTP or GDP, 4° C. for 2 hours, Western immunoblot with anti-H-Ras antibody",co-precipitated
